Results: patent US20260374880 (published 2026)
Numbering of substitutions follows the chain as printed. Several values for one entry are separate records, joined by “and”; a condition that tells them apart may be missing. Equal values may be shown once. Each block holds one binder with its values, some of them ahead of it.

How the values were obtained:
TGFbR1 ECD I130G = biological target: T1, TGFbR1 ECD I130G (human); assay: ELISA
T1 chain: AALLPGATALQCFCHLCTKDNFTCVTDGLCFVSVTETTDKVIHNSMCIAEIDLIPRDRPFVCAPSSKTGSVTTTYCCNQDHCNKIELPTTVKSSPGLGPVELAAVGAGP

[1] = biological target: T2, murine TGFbR1 ECD-133-myc(His)6 (mouse, UniProt Q64729); assay: BLI
T2 chain: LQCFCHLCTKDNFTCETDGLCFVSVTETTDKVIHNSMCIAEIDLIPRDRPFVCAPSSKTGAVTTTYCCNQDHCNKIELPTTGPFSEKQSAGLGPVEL

[2] = biological target: T3, human TGFbR1 ECD 33-125-myc(His)6 (human); assay: ELISA
T3 chain: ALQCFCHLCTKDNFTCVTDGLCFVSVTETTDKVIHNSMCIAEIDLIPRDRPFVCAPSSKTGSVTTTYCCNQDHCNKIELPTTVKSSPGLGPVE

TGFbR1 ECD L126A = biological target: T4, TGFbR1 ECD L126A (human); assay: ELISA
T4 chain: T1 chain with L102A, G106I

[3] = biological target: T5, human TGFbR1 ECD-133-myc(His)6 (human); assay: SPR, biotinylated mAb
T5 chain: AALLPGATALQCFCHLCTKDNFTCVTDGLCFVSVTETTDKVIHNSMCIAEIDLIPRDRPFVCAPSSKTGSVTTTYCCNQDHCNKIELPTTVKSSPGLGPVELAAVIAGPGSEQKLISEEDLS

TGFbR1 ECD G132A = biological target: T6, TGFbR1 ECD G132A (human); assay: ELISA
T6 chain: T1 chain with G106I, G108A

[4] = biological target: T5, human TGFbR1 ECD-133-myc(His)6; assay: SPR
[5] = biological target: T5, human TGFbR1 ECD-133-myc(His)6; assay: BLI
TGFbR1 ECD V129G = biological target: T7, TGFbR1 ECD V129G (human); assay: ELISA
T7 chain: T1 chain with V105G, G106I

[6] = biological target: T8, endogenous TGFbR1 on cells (human); assay: FACS, PC-3U cells
T8 chain: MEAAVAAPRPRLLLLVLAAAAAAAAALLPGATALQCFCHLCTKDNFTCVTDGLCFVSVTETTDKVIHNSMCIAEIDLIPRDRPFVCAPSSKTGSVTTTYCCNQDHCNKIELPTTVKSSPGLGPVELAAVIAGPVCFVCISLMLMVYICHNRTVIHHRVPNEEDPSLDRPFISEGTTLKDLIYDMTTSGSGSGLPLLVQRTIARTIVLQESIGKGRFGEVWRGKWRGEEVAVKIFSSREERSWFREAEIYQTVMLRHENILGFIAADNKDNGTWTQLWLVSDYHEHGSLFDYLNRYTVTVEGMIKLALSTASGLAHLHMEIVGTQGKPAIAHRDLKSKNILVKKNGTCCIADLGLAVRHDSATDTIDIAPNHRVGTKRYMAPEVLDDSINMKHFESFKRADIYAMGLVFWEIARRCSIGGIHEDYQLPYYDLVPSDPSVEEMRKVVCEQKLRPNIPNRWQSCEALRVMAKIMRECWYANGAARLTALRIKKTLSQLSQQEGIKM

[7] = biological target: T8, endogenous TGFbR1 on cells; assay: FACS, RWPE cells
[8] = biological target: T5, human TGFbR1 ECD-133-myc(His)6; assay: ELISA
[9] = biological target: T5, human TGFbR1 ECD-133-myc(His)6; assay: BLI
TGFbR1 ECD P133A = biological target: T9, TGFbR1 ECD P133A (human); assay: ELISA
T9 chain: T1 chain with G106I, P109A

[10] = biological target: T10, human TGFbR1 ECD-133-huFc (human); assay: BLI
T10 chain: T1 chain with G106I

[11] = biological target: T5, human TGFbR1 ECD-133-myc(His)6; assay: BLI
[12] = biological target: T10, human TGFbR1 ECD-133-huFc; assay: ELISA

binding result (TGFbR1 ECD I130G): no binding
Kd [1]: 18 nM
binding result [2]: no binding
binding result (TGFbR1 ECD L126A): no binding
Kd [3]: 2.5 nM and 2.3 nM and 1.8 nM
binding result (TGFbR1 ECD G132A): no binding
Kd [4]: 5.6 nM and 6.5 nM
Kd [5]: 3.74 nM
binding result (TGFbR1 ECD V129G): no binding
Kd [6]: 10.7 nM
Kd [7]: 7.81 nM
IC50 [8]: 0.104 nM
Kd [9]: 3.7 nM
binding result (TGFbR1 ECD P133A): no binding
Kd [10]: 13 nM
B1: mAb #19 murine chimeric IgG1 (antibody, V domains shown)
VH: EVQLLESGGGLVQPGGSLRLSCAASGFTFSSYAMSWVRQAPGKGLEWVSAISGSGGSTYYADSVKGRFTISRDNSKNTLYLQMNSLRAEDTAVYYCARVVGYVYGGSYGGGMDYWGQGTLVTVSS
VL: DIQMTQSPSSLSASVGDRVTITCRASQSISSYLNWYQQKPGKAPKLLIYAASSLQSGVPSRFSGSGSGTDFTLTISSLQPEDFATYYCQQGYGPLTFGQGTKLEIK

Kd [11]: 8.9 nM
EC50 [12]: 0.0231 µg/mL
B2: YU771-E01 (antibody, V domains shown)
VH: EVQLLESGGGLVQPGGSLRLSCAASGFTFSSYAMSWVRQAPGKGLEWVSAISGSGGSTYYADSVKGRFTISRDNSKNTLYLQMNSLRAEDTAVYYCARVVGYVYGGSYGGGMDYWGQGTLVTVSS
VL: B1 VL with Q27E, A50G, S53F, S56W

Kd [11]: 22 nM
EC50 [12]: 0.139 µg/mL
B3: Antibody 19 (parental) (antibody, V domains shown)
VH: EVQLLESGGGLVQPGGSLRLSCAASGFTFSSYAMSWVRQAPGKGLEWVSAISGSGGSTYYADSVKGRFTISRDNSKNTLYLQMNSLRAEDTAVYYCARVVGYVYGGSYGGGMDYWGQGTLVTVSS
VL: B1 VL

Kd [11]: 12 nM
EC50 [12]: 0.03 µg/mL
B4: YU772-H05 (antibody, V domains shown)
VH: EVQLLESGGGLVQPGGSLRLSCAASGFTFSSYAMSWVRQAPGKGLEWVSAISGSGGTTYYADSVKGRFTISRDNSKNTLYLQMNSLRAEDTAVYYCARVVGYVFGGYYGGGMDYWGQGTLVTVSS
VL: B1 VL

IC50 [8]: 0.139 nM
Kd [9]: 5.9 nM
B5: mAb #19 human IgG1-LALA (antibody, V domains shown)
VH: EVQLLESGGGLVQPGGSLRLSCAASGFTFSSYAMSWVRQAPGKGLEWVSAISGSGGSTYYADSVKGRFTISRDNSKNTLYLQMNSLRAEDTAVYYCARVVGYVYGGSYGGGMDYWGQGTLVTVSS
VL: B1 VL

Kd [11]: 11 nM
EC50 [12]: 0.022 µg/mL
B6: YU771-A01 (antibody, V domains shown)
VH: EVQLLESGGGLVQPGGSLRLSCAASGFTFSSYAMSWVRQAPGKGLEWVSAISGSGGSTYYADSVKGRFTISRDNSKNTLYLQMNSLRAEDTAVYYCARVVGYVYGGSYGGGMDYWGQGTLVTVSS
VL: B1 VL with A50G, S53F, S56Y

Kd [11]: 16 nM
EC50 [12]: 0.0244 µg/mL
B7: YU771-B12 (antibody, V domains shown)
VH: B4 VH with A33P, S54Y, T57S, F104Y, Y107S
VL: B1 VL

Kd [11]: 8.8 nM
EC50 [12]: 0.0257 µg/mL
B8: YU772-G04_VH-YU771-A09-VL (antibody, V domains shown)
VH: B4 VH with T28P, V100A, F104H, G105R, Y107F
VL: B1 VL with S30Y, Y32H, S53T, G91A

Kd [11]: 7.8 nM
EC50 [12]: 0.0225 µg/mL
B9: YU772-D10 (antibody, V domains shown)
VH: B4 VH with A33P, S54Y, T57S, F104Y, G105D, Y107S
VL: B1 VL

Kd [11]: 7.3 nM
EC50 [12]: 0.0303 µg/mL
B10: YU772-D10_VH-YU772-C01_VL (antibody, V domains shown)
VH: B4 VH with A33P, S54Y, T57S, F104Y, G105D, Y107S
VL: B1 VL with S30W

Kd [11]: 8.7 nM
EC50 [12]: 0.0213 µg/mL
B11: YU772-G12 (antibody, V domains shown)
VH: B4 VH with T28P, S31T, T57Y, F104Y, Y107S
VL: B1 VL

Kd [11]: 7.6 nM
EC50 [12]: 0.0249 µg/mL
B12: YU772-F11 (antibody, V domains shown)
VH: B4 VH with S31T, A33P, T57S, F104Y, G105R, Y107S
VL: B1 VL

Kd [11]: 7.9 nM
EC50 [12]: 0.0314 µg/mL
B13: YU772-A11 (antibody, V domains shown)
VH: B4 VH with T57Y, F104Y, G105D, Y107A
VL: B1 VL
